Measured values published in the nanobody polyreactivity screen of Harvey et al. (2022).

Test: yeast display, Sf9 membrane polyspecificity reagent, FACS + sequencing; frameworks hold sequencing errors
Procedure, shortened: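 After 36–48 hours of galactose induction, yeast (Saccharomyces cerevisiae BJ5465) displaying a synthetic nanobody library were stained at 4 °C for 1 hour with 10% biotinylated, detergent-solubilized Sf9 membrane reagent. Streptavidin microbeads enriched the stained cells before FACS sorting into low and high (top ~1%) gates on anti-HA and streptavidin fluorescence. Each clone's polyreactivity label reflects its gate of origin.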

Row | Sequence | polyreactivity (PSR sort gate)
1 | QVQLVESGGGLVQAGGSLRLSCAASGRTFYRNAMGWYRQAPGKERELVAAISRSGGRTYYADSVKGRFTISRDNAKNTVYLHMNSLKPEDTAVYYCNAQPTLAVADYDYWGQGTQVTVSS | high polyreactivity
2 | QVQLVESGGGLVQAGGSLRLSCAASGRTFYPYAMGWYRQAPGKERELVASINWSGASTYYADSVKGRFTISRDNAKNTVYLQMNSLKPEDTAVYYCAAYITYLSSRFWYGYWGQGTQVTVSS | high polyreactivity
3 | QVQLVESGGGLVQAGGSLRLSCAASGSIFSHKVMGWYRQAPGKERELVAAITYRGGSTYYADSVKGRFTISRDNAKNTVYLQMNSRKPEDTAVYYCAALNEVSTYHGFDYWGQGTQVTVSS | low polyreactivity
4 | QVQLVESGGGLVQAGGSLRLSCAASGRTFFGYAMGWYRQAPGKERELVAAISSRGDSTYYADSVKGRFTISRDNAKNTVYLQMNSLKPEDTAVYYCNTYSTVYSYDYDYWGQGTQVTVSS | low polyreactivity
5 | QVQLVESGGGLVQAGGSLRLSCAASGIIFGVNAMGWYRQAPGKERELVASITSGGSTNYADSVKGRFTISRDNAKNTVYLQMNSLKPEDTAVYYCNARWWAPGRPGDEINRILDYWGQGTQVTVSS | low polyreactivity
6 | QVQLVESGGGLVQAGGSLRLSCAASGSIFYVYAMGRYRQAPGTEWELVAAISSGDISYYADSVKGRFTISRDNAKNTVYLQKNSLKPEDTAVYYCNAERLGNTLSPGGDDYWGQGTQVTVSS | low polyreactivity
7 | QVQLVESGGGLVQEGGSLRISCAASGRIFDSNAMVWYRQAPGKERELVAAISNGGTTNYADSVKGRFTISRDNAKNTVYLQMNSLKPADTAVYYCAARGRVVWYNGGSYRFYYWGQGTQVTVSS | high polyreactivity
8 | QVQLVESGGGLVQAGGSLRLSCAASGRIFPRYAMGWYRQAPGKERELVAAITTGGSTYADSVKGRFTISRDNAKNTVYLQMNSLKPEDTAVYYCAKRDSNKRDYWGQGTQVTVSS | low polyreactivity
9 | QVQLVESGGGLVQAGGSLRLSCAASGSIYSNAMGWYRPAPGKERELVAAISGSGSTTYYADSVKGRFTISRDNAKNTVYLQMNSLKPEDTAVYYCARGVYGRGRTERYYWGQGTQVIVSS | high polyreactivity
10 | QVQLVESRGGLVQAGGSLRLSCAASGIIFQSYTMGWYRQAPGKERELVAAISTSGSTYYADSVKGRFTISRDNAKNTVYLQMNSLKPEDTAVYYCATYRYRIWWWGEYDYWGQGTQVTVSS | high polyreactivity
11 | QVQLVESGGGLVQAGGSLRLSCAASGRTYAYYAMGWYRQAPGKERELVAAITRGTDTHYADSVKGRFTISRDNAKNTVYLQMNSLKPEDTAVYYCAADLSQDFDYWGQGTQVTVSS | low polyreactivity
12 | QVQLVESGGGLVEAGGSLRLSCAASGSTFTYYAMGWFRPAPGKERELVAAISSSGTSTYYADSVKGRFTLSRDNEKNTVSLQLNSLKPEDPAVYYCAADYYHTRGEADYEYAYWGKGTQVTVSS | low polyreactivity
13 | QVQLVESGGGLVQAGGSLRLSCASSGFTFSVYAMGWYRQAPGKERELVAAITWRGGSTYYADSVKGRFTISRDNAKNTVYLQMNSLKPEDTAVYYCAVLYPKYGKRYGYWGQGTQVTVSS | high polyreactivity
14 | QVQLVESGGGLVQAGGSLRLSCAASGNTFIEYAMGWYRQAPGKERELVAAINWNGGSTYYADSVKGRFTISRDNAKNTVYLQMNSLKPEDTAVYYCYADYPQYWDYRTSDYTYGTYNYWGQGTQVTVSS | low polyreactivity
15 | QFQLVESGGGLVQAGGSLRLSCAASVSTVVIYDMGWYRQAPGKERELVAAISYSGGSTYYADSVKGRFTITRDNAKNTVYLQMNSLKPEDTAVYYCNAGVLVLLYAYLPSDLEYWGQGTQVTVSS | low polyreactivity
16 | QVQLVESGGGLVQAGGSLRLSCAASGRTFSVNDMGWYRQAPGKERELVAAISFSGGSTYYADSVKGRFTISRDNAKNTVYLQMNSLKPEDTAVYYCAARVRWWSPGGYWGQGTQVTVSS | high polyreactivity

Row | Sequence | polyreactivity (PSR sort gate)
17 | QVQLVESGGGLVQAGGRLRLSCAASGSISWVYAMGWYRQAPGTERELVADITDSGDSTYYADSVKGRFTISRDNAKNTVYLQMHSLKPEDTAVYYSAAPGSRHYYIYWPYNYWGQGTQVTVSS | low polyreactivity
18 | QVQLVESGGGLVQAGGSLRLSCAASGITFTPNAMGWYRQAPGKEREFVAAITYSGGSTYYADSVKGRFTISRDNAKNTVYLQMNSLKPEDTAVYYCAAVYYLLYYEAYYYWGQGTQVTVSS | low polyreactivity
19 | QVQLVESVVGLVQAGGSLRLSSAASGGTFSENAMGWYRQAPGKERELVAAITWSVGNTYADSVKGLFTISRDNAKNTVYLQMNSLKPEDTAVYYCAKDFSVPAYDYWGLGTQVTVSS | low polyreactivity
20 | QVQLVESRGVLVQAGGSLRLSCAASGFTFYHYAMGWYRQAPGKDRELVAALDNGGSTYADSVKGRFTISRDNATNTVSLQRNSLKPEDTAVYYCAAVYLRYINGFYFWGQGTQVTVSS | low polyreactivity
21 | QVQLQESSGGLVQAGGSLRMSCAASGTIFHFHIIGWYRQAPRKEREFVAASSYGTRTYYADSVKGRFTISRDNAKNTVYLQMNSQKPEDTAVYYCAVYDYLEVYCWYWGQGTQVTVRS | low polyreactivity
22 | QVQLVESGGGLVQAGGSLRLSCAASGLTQYKNGMGWYRQAPGKERELVAVISRSGGRTYYADSVKGRFTISRDNAKNTVYLQMNSLKPEDTAVYYCAARQYGPRYTYYYWGQGTQVTVSS | high polyreactivity
23 | QVQLVESGGGLVQAGGSLRLSCAASGFTFTIYAMGWYRPAPGKEMELVAAITGRGGSTYYADSVKGRFTISRDNAKNTVYLRMNSLKPEDTAVYYCADSQRSGHPSYDYWGQGTQVTVSS | high polyreactivity
24 | QVQLVESGGGLVQAGGSLRLSCAASVSISLYYAMGWYRQAPGKERELVAAISTRGGSTYYADSVKGRFTISRDNAKNTVYLQMNSLKPEDTAVYYCAARTRLTADPRYGISSKMYYWGQGTQVTVSS | high polyreactivity
25 | QVHLVESGGGLVQAGGSLRLSCAASGSINYYAMGWYRQAPGKERELVAAITGSGGSTYYADSVKGRFTISRDNAKNTVYLQMNSLKPEDTAVYYCAARYGYIYGPYYYWGQGTQVTVSS | high polyreactivity
26 | QVQLVESGGGLVQAGGSLRLSCAASGLKFAHYAMGWYRQAPGKERELVAAISRSGGRTRYADSVKGRFTISRDQAKNTVYLQMNSLKAEDTAVYYCAAVGSVNYDADFDYWGQGTQVTVSS | high polyreactivity
27 | QVQLVESGGGLVQAGGSLRLSCAASGRIFTGYAMGWYRQAPGKERELVAAISRGGSTNYADSAKGRFTISRDNAKNTVYLQLNSLKPEDTAVYYCAAGVHWDRGDYWGQGTQVTVSS | low polyreactivity
28 | QVQLVESGGGLVQAGGSLRLSCAASGITFYFNTMGWYRQAPGKVRELVASISGGSSTYYADSVKGRFTISRDNAKNTVYLQMNSLKPEDTAVYYCNAQGALFRGWFDYDYWGQGTQVTVSS | low polyreactivity
29 | QVQLVESGGGLDQAGGSLRLICAASGFTITNNAMGWYRQAPGKEREFVAAISASGGSTYYADSVKGRFTISRDNAKNTVYLQMNSLKPEDTAVYYCAVEPVYIVSEVLFDYWGQGTEVTVSS | low polyreactivity
30 | QVQLVESVGGLVQAGGSLSLSCAASGSTLSDNAMGWYRQAPGKERELVAAIRRVGSTNYADSVKGRFTISRDNAKNTVYLQMNSLKPEDTAVYYCAVRHVWPWQGYDYWGQGTQVTVSS | low polyreactivity
31 | QVQLVESGGGLVQAGGSLRLSCAASGRIFLYNAMGSYRQAPGKVRELVASISSGVTTNYADSVKGRFTISRDNAKKTVYLQMNSLKPEDTAVYYCAADGQYSVIVKYDSWGQGTQVTVSS | low polyreactivity
32 | QVQHVESAAGLVQAGGSLRLTCAASGSIFRVYTMGWSRQAPGKERELVAAISRSGGRTYYADSVKGRFTISRDNAKNTVYLQMNSLKPEDTAVYYCAKRGRVTYPYYYWGQGTQVTVSS | high polyreactivity
